Source: patent publication US20230322958A1 (Genentech, published 2023)

T1: huNotch2-EGF6-10 (human, UniProt Q04721 219-418)
T1 construct: also called human Notch2 EGF6-10
T1 sequence: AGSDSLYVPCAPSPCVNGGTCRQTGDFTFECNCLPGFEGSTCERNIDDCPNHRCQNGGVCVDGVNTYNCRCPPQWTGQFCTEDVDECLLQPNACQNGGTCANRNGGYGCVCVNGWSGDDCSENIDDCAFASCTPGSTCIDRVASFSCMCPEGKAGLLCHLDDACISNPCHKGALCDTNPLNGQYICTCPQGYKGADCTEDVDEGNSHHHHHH


Tests used:
[1] = target: T2, human Notch2 on U-87 MG cells (human, UniProt Q04721 26-2471); test: cell-based or functional assay
[2] = target: T2, human Notch2 on U-87 MG cells; test: cell-based or functional assay; remark: listed apart in the source
[3] = target: T1, huNotch2-EGF6-10; test: SPR BIAcore, separate experiment, substantially as for Table 4
Experimental: The binding affinities of the antibodies was determined by BIAcore™ T200 machine. Rabbit antibodies were expressed as chimeric antibodies with rabbit variable domains and human constant domains. Rat antibodies were expressed as chimeric antibodies with rat variable domains and human constant regions. Humanized antibodies were expressed in the human IgG1 backbone. For kinetics measurements, antibodies were captured on research grade protein A chip (GE Healthcare) to achieve approximately 300 RU. Ten-fold serial dilutions of huNotch2-EGF6-10 were injected in HBS-P buffer with additional 3 mM CaCl₂ at 37° C. with a flow rate of 100 μL/min. Association rates (ka) and dissociation rates (kd) were calculated using a 1:1 Langmuir binding model (BIAcore™ T200 Evaluation Software version 2.0). The equilibrium dissociation constant (KD) was calculated as the ratio kd/ka.
In a separate experiment, the binding affinities of the humanized versions of the rat 3107 antibody were determined, substantially as described above.

T2 sequence (Q04721 26-2471): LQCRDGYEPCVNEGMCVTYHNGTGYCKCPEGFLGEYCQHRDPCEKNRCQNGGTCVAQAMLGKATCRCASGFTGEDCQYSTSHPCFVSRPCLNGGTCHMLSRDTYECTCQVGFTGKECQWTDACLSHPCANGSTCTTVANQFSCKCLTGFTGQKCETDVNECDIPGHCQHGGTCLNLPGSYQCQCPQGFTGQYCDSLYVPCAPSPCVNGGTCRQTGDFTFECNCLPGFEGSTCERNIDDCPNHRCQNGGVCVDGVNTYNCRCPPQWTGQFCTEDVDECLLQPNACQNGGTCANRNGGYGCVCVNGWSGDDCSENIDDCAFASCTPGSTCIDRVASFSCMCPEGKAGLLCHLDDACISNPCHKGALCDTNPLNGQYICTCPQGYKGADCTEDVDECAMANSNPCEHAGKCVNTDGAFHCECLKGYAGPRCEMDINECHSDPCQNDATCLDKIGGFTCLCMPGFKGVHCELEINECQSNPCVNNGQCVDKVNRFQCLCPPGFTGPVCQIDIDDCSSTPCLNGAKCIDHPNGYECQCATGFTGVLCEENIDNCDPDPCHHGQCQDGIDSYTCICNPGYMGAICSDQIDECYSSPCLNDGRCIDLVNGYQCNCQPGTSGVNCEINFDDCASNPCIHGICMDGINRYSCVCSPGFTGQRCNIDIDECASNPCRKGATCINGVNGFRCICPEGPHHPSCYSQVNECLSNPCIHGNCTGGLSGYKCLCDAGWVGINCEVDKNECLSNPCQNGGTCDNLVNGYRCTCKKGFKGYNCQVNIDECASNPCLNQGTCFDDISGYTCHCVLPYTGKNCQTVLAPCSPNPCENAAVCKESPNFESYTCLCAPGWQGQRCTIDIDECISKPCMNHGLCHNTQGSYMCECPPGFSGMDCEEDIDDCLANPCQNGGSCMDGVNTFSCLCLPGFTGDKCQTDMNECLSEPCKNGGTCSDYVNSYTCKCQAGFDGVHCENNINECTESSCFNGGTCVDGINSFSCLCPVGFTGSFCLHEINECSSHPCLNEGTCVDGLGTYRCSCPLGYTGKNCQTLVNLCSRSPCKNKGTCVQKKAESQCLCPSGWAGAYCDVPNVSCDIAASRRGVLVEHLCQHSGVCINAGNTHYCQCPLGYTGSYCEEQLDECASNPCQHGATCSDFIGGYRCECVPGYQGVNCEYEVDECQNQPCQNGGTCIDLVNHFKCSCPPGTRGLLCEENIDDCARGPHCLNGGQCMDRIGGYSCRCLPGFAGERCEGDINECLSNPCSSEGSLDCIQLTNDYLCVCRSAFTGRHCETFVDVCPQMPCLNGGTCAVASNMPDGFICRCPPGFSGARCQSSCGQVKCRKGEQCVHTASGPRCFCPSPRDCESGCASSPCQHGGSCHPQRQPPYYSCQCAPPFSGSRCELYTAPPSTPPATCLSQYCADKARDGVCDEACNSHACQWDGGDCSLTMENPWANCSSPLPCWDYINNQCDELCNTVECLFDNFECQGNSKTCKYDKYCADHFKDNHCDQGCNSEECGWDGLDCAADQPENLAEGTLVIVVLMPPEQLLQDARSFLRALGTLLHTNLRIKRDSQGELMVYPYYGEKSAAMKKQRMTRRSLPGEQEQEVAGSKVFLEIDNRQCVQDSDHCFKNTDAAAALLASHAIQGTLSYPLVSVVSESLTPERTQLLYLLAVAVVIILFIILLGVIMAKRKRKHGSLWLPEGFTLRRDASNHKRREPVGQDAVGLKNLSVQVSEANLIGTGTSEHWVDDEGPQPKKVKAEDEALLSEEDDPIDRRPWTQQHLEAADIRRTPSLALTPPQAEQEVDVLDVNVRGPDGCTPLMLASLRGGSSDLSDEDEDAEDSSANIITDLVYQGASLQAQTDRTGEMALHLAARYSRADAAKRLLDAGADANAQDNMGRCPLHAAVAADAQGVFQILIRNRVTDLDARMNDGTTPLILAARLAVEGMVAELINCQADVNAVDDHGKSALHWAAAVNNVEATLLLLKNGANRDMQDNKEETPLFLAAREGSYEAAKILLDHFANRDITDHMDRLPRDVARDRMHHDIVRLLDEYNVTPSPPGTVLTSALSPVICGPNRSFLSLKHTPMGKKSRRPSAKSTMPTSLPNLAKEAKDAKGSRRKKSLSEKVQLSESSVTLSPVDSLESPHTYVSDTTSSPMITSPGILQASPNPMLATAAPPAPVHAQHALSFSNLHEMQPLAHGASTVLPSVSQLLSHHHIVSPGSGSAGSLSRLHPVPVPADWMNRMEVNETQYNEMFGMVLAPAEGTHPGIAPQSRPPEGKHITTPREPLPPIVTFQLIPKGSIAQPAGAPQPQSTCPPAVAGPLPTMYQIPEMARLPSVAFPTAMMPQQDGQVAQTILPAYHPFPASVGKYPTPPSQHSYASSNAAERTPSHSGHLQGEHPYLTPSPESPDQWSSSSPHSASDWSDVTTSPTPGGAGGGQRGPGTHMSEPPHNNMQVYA

DLL Inhibition (IC50) [1]	Jag1 Inhibition (IC50) [1]	Jagged1 IC50 [2]	Kd [3]	koff [3]	kon [3]	Binder
> 1000 nM						1B2.v104.huFab.LC_K149C.dPEG6_dimer (other, engineered Cys (K149C) joined through maleimide to Bis-Mal-PEG6) heavy: EVQLVESGGGLVQPGGSLKLSCAVSGFTFSDFYMEWVRQASGKGLEWVAAQRNKANDFSIVYSASVKDRFTISRDDSKSTLYLQMNSLKTEDTAVYYCSRDGGKLALDAWGQGTLVTVSSASTKGPSVFPLAPSSKSTSGGTAALGCLVKDYFPEPVTVSWNSGALTSGVHTFPAVLQSSGLYSLSSVVTVPSSSLGTQTYICNVNHKPSNTKVDKKVEPKSCD light: DIQMTQSPSSVSASVGDRVTITCQTSEDIYSGLAWYQQKPGKSPKLLIYGASRLQDGVPSRFSGSGSGTDYTLTISSLQPEDFATYYCQQGFKYPLTFGGGTKVEIKRTVAAPSVFIFPPSDEQLKSGTASVVCLLNNFYPREAKVQWCVDNALQSGNSQESVTEQDSKDSTYSLSSTLTLSKADYEKHKVYACEVTHQGLSSPVTKSFNRGEC
> 1000 nM						1B2.v104.huFab.LC_K149C.dPEG11_dimer (other, engineered Cys (K149C) joined through maleimide to Bis-Mal-PEG11) heavy: EVQLVESGGGLVQPGGSLKLSCAVSGFTFSDFYMEWVRQASGKGLEWVAAQRNKANDFSIVYSASVKDRFTISRDDSKSTLYLQMNSLKTEDTAVYYCSRDGGKLALDAWGQGTLVTVSSASTKGPSVFPLAPSSKSTSGGTAALGCLVKDYFPEPVTVSWNSGALTSGVHTFPAVLQSSGLYSLSSVVTVPSSSLGTQTYICNVNHKPSNTKVDKKVEPKSCD light: DIQMTQSPSSVSASVGDRVTITCQTSEDIYSGLAWYQQKPGKSPKLLIYGASRLQDGVPSRFSGSGSGTDYTLTISSLQPEDFATYYCQQGFKYPLTFGGGTKVEIKRTVAAPSVFIFPPSDEQLKSGTASVVCLLNNFYPREAKVQWCVDNALQSGNSQESVTEQDSKDSTYSLSSTLTLSKADYEKHKVYACEVTHQGLSSPVTKSFNRGEC
> 1000 nM						1B2.v104.huFab.LC_K149C.dPEG19_dimer (other, engineered Cys (K149C) joined through maleimide to Bis-Mal-PEG19) heavy: EVQLVESGGGLVQPGGSLKLSCAVSGFTFSDFYMEWVRQASGKGLEWVAAQRNKANDFSIVYSASVKDRFTISRDDSKSTLYLQMNSLKTEDTAVYYCSRDGGKLALDAWGQGTLVTVSSASTKGPSVFPLAPSSKSTSGGTAALGCLVKDYFPEPVTVSWNSGALTSGVHTFPAVLQSSGLYSLSSVVTVPSSSLGTQTYICNVNHKPSNTKVDKKVEPKSCD light: DIQMTQSPSSVSASVGDRVTITCQTSEDIYSGLAWYQQKPGKSPKLLIYGASRLQDGVPSRFSGSGSGTDYTLTISSLQPEDFATYYCQQGFKYPLTFGGGTKVEIKRTVAAPSVFIFPPSDEQLKSGTASVVCLLNNFYPREAKVQWCVDNALQSGNSQESVTEQDSKDSTYSLSSTLTLSKADYEKHKVYACEVTHQGLSSPVTKSFNRGEC
> 500 nM	0.27 nM					1B2.v104.huFab.LC_K149C.PEG_4-arm-Mal-10kD (other, engineered Cys (K149C) joined through maleimide to a 4-arm maleimide PEG linker (10 kD)) heavy: EVQLVESGGGLVQPGGSLKLSCAVSGFTFSDFYMEWVRQASGKGLEWVAAQRNKANDFSIVYSASVKDRFTISRDDSKSTLYLQMNSLKTEDTAVYYCSRDGGKLALDAWGQGTLVTVSSASTKGPSVFPLAPSSKSTSGGTAALGCLVKDYFPEPVTVSWNSGALTSGVHTFPAVLQSSGLYSLSSVVTVPSSSLGTQTYICNVNHKPSNTKVDKKVEPKSCD light: DIQMTQSPSSVSASVGDRVTITCQTSEDIYSGLAWYQQKPGKSPKLLIYGASRLQDGVPSRFSGSGSGTDYTLTISSLQPEDFATYYCQQGFKYPLTFGGGTKVEIKRTVAAPSVFIFPPSDEQLKSGTASVVCLLNNFYPREAKVQWCVDNALQSGNSQESVTEQDSKDSTYSLSSTLTLSKADYEKHKVYACEVTHQGLSSPVTKSFNRGEC
> 400 nM	0.21 nM					1B2.v104.huFab.LC_K149C.PEG_6-arm-Mal-6kD (other, engineered Cys (K149C) joined through maleimide to 6ARM(DP)-MAL-6000) heavy: EVQLVESGGGLVQPGGSLKLSCAVSGFTFSDFYMEWVRQASGKGLEWVAAQRNKANDFSIVYSASVKDRFTISRDDSKSTLYLQMNSLKTEDTAVYYCSRDGGKLALDAWGQGTLVTVSSASTKGPSVFPLAPSSKSTSGGTAALGCLVKDYFPEPVTVSWNSGALTSGVHTFPAVLQSSGLYSLSSVVTVPSSSLGTQTYICNVNHKPSNTKVDKKVEPKSCD light: DIQMTQSPSSVSASVGDRVTITCQTSEDIYSGLAWYQQKPGKSPKLLIYGASRLQDGVPSRFSGSGSGTDYTLTISSLQPEDFATYYCQQGFKYPLTFGGGTKVEIKRTVAAPSVFIFPPSDEQLKSGTASVVCLLNNFYPREAKVQWCVDNALQSGNSQESVTEQDSKDSTYSLSSTLTLSKADYEKHKVYACEVTHQGLSSPVTKSFNRGEC
> 500 nM	0.35 nM					1B2.v104.huFab.LC_K149C.dPEG_4-arm-Mal-3kD (other, engineered Cys (K149C) joined through maleimide to a 4-arm maleimide dPEG linker (3 kD)) heavy: EVQLVESGGGLVQPGGSLKLSCAVSGFTFSDFYMEWVRQASGKGLEWVAAQRNKANDFSIVYSASVKDRFTISRDDSKSTLYLQMNSLKTEDTAVYYCSRDGGKLALDAWGQGTLVTVSSASTKGPSVFPLAPSSKSTSGGTAALGCLVKDYFPEPVTVSWNSGALTSGVHTFPAVLQSSGLYSLSSVVTVPSSSLGTQTYICNVNHKPSNTKVDKKVEPKSCD light: DIQMTQSPSSVSASVGDRVTITCQTSEDIYSGLAWYQQKPGKSPKLLIYGASRLQDGVPSRFSGSGSGTDYTLTISSLQPEDFATYYCQQGFKYPLTFGGGTKVEIKRTVAAPSVFIFPPSDEQLKSGTASVVCLLNNFYPREAKVQWCVDNALQSGNSQESVTEQDSKDSTYSLSSTLTLSKADYEKHKVYACEVTHQGLSSPVTKSFNRGEC
		5.94 nM	9.94 nM	0.00353 s⁻¹	355000 M⁻¹ s⁻¹	hu.3107.L7H13 (antibody, V domains shown, also called hu.Notch-3107.L7H13) VH: EVQLVQSGAEVKKPGASVKVSCKASGYTFSNYVIHWVRQAPGQGPEWTGYIIPGSGGTKFNEKFKGRATSTVDTSITTAYMELSRLRSDDTVVYYCARDGAGSFTYWGQGTLVTVSS VL: DIVMTQSPDSLAVSLGERATINCRSSQSLVHSDGNTYLHWYQQKPGQPPKLLIYRISNRFSGVPDRFSGSGSGTDFTLTISSLQAEDVAVYYCLQSTHFPDTFGGGTKVEIK
		7.85 nM	14.3 nM	0.00542 s⁻¹	380000 M⁻¹ s⁻¹	hu.3107.L1H12 (antibody, V domains shown, also called hu.Notch-3107.L1H12) VH: EVQLVQSGAEVKKPGASVKVSCKASGYTFSNYVIHWVRQAPGQGPEWTGYIIPGSGGTKFNEKFKGRATSTVDTSSTTAYMELSRLRSDDTVVYYCARDGAGSFTYWGQGTLVTVSS VL: DVVMTQSPLSLPVTLGQPASISCRSSQSLVHSDGNTYLHWFQQRPGQSPRLLIYRISNRFSGVPDRFSGSGSGTDFTLKISRVEAEDVGVYYCLQSTHFPDTFGGGTKVEIK
		6.65 nM	10 nM	0.00354 s⁻¹	354000 M⁻¹ s⁻¹	hu.3107.L6H14 (antibody, V domains shown, also called hu.Notch-3107.L6H14) VH: EVQLVQSGAEVKKPGESLKISCKGSGYTFSNYVIHWVRQMPGKGPEWTGYIIPGSGGTKFNEKFKGQATISVDKSSTTAYLQWSSLKASDTAMYYCARDGAGSFTYWGQGTLVTVSS VL: DVVMTQSPDSLAVSLGERATINCRSSQSLVHSDGNTYLHWFQQKPGQPPKLLIYRISNRFSGVPDRFSGSGSGTDFTLTISSLQAEDVAVYYCLQSTHFPDTFGGGTKVEIK
		8.03 nM	9.23 nM	0.00365 s⁻¹	396000 M⁻¹ s⁻¹	hu.3107.L6H15 (antibody, V domains shown, also called hu.Notch-3107.L6H15) VH: EVQLVQSGAEVKKPGESLKISCKGSGYTFSNYVIHWVRQMPGKGPEWTGYIIPGSGGTKFNEKFKGQATISVDKSITTAYLQWSSLKASDTAMYYCARDGAGSFTYWGQGTLVTVSS VL: DVVMTQSPDSLAVSLGERATINCRSSQSLVHSDGNTYLHWFQQKPGQPPKLLIYRISNRFSGVPDRFSGSGSGTDFTLTISSLQAEDVAVYYCLQSTHFPDTFGGGTKVEIK
		10.5 nM	10.4 nM	0.00359 s⁻¹	346000 M⁻¹ s⁻¹	hu.3107.L7H14 (antibody, V domains shown, also called hu.Notch-3107.L7H14) VH: EVQLVQSGAEVKKPGESLKISCKGSGYTFSNYVIHWVRQMPGKGPEWTGYIIPGSGGTKFNEKFKGQATISVDKSSTTAYLQWSSLKASDTAMYYCARDGAGSFTYWGQGTLVTVSS VL: DIVMTQSPDSLAVSLGERATINCRSSQSLVHSDGNTYLHWYQQKPGQPPKLLIYRISNRFSGVPDRFSGSGSGTDFTLTISSLQAEDVAVYYCLQSTHFPDTFGGGTKVEIK
		4.92 nM	15.5 nM	0.00587 s⁻¹	379000 M⁻¹ s⁻¹	hu.3107.L1H13 (antibody, V domains shown, also called hu.Notch-3107.L1H13) VH: EVQLVQSGAEVKKPGASVKVSCKASGYTFSNYVIHWVRQAPGQGPEWTGYIIPGSGGTKFNEKFKGRATSTVDTSITTAYMELSRLRSDDTVVYYCARDGAGSFTYWGQGTLVTVSS VL: DVVMTQSPLSLPVTLGQPASISCRSSQSLVHSDGNTYLHWFQQRPGQSPRLLIYRISNRFSGVPDRFSGSGSGTDFTLKISRVEAEDVGVYYCLQSTHFPDTFGGGTKVEIK
		9.16 nM	11.6 nM	0.00407 s⁻¹	350000 M⁻¹ s⁻¹	hu.3107.L7H15 (antibody, V domains shown, also called hu.Notch-3107.L7H15) VH: EVQLVQSGAEVKKPGESLKISCKGSGYTFSNYVIHWVRQMPGKGPEWTGYIIPGSGGTKFNEKFKGQATISVDKSITTAYLQWSSLKASDTAMYYCARDGAGSFTYWGQGTLVTVSS VL: DIVMTQSPDSLAVSLGERATINCRSSQSLVHSDGNTYLHWYQQKPGQPPKLLIYRISNRFSGVPDRFSGSGSGTDFTLTISSLQAEDVAVYYCLQSTHFPDTFGGGTKVEIK
50 nM	120 nM					1B2.v104.huFab.LC_K149C (Fab, V domains shown) VH: EVQLVESGGGLVQPGGSLKLSCAVSGFTFSDFYMEWVRQASGKGLEWVAAQRNKANDFSIVYSASVKDRFTISRDDSKSTLYLQMNSLKTEDTAVYYCSRDGGKLALDAWGQGTLVTVSS VL: DIQMTQSPSSVSASVGDRVTITCQTSEDIYSGLAWYQQKPGKSPKLLIYGASRLQDGVPSRFSGSGSGTDYTLTISSLQPEDFATYYCQQGFKYPLTFGGGTKVEIKR
